Reference: patent US20250296979A1

Biological target: VEGF-C and VEGF-D
Assay: ELISA; after storage at -20 C or 5 C for up to 24 months

- decrease of binding activity against initiation of the stability study: 9 to 19%
Substance: OPT-302 (Fc fusion)
